The Immune Epitope Database (IEDB)

Columns and labels:
HLA-B*44:02 = assay: IEDB peptide-MHC binding, purified MHC/direct/fluorescence; filed as Kd, often an IC50 or EC50 that approximates it; ≥ and ≤ were set here for values at or beyond the usual limits of such assays
HLA-B*35:01 [1] = assay: as above
HLA-A*11:01 [2] = assay: as above
HLA-B*15:01 [3] = assay: as above
HLA-A*02:01 = assay: as above
HLA-A*69:01 [4] = assay: as above
HLA-B*27:05 = assay: as above
HLA-A*31:01 [5] = assay: as above
HLA-B*58:01 [6] = assay: as above
HLA-A*26:01 = assay: as above
HLA-B*07:02 = assay: as above
HLA-B*46:01 = assay: as above
HLA-B*08:01 [7] = assay: as above
HLA-B*15:02 = assay: as above
HLA-B*40:01 = assay: as above
HLA-A*03:01 = assay: as above
HLA-A*01:01 [8] = assay: as above
HLA-B*35:01 [9] = assay: IEDB peptide-MHC binding, purified MHC/competitive/fluorescence; filed as Kd, often an IC50 or EC50 that approximates it; ≥ and ≤ were set here for values at or beyond the usual limits of such assays; conditions: source organism: Human immunodeficiency virus 1
HLA-A*68:02 = assay: as above
HLA-A*30:01 = assay: as above; conditions: source organism: Human immunodeficiency virus 1
HLA-A*11:01 [10] = assay: as above; conditions: source organism: Human immunodeficiency virus 1
HLA-A*26:02 = assay: as above
HLA-A*69:01 [11] = assay: as above
HLA-A*02:06 = assay: as above
HLA-A*31:01 [12] = assay: as above; conditions: source organism: Human immunodeficiency virus 1
HLA-B*58:01 [13] = assay: as above; conditions: source organism: Human immunodeficiency virus 1
HLA-A*02:03 = assay: as above; conditions: source organism: Human immunodeficiency virus 1
HLA-B*18:01 [14] = assay: as above; conditions: source organism: Human immunodeficiency virus 1
HLA-B*57:01 [15] = assay: as above; conditions: source organism: Human immunodeficiency virus 1
HLA-B*08:01 [16] = assay: as above; conditions: source organism: Human immunodeficiency virus 1
HLA-B*39:01 = assay: as above; conditions: source organism: Human immunodeficiency virus 1
HLA-B*15:17 [17] = assay: as above; conditions: source organism: Human immunodeficiency virus 1
HLA-A*01:01 [18] = assay: as above; conditions: source organism: Human immunodeficiency virus 1
HLA-B*57:01 [19] = assay: IEDB peptide-MHC binding, purified MHC/direct/fluorescence; filed as Kd, often an IC50 or EC50 that approximates it; ≥ and ≤ were set here for values at or beyond the usual limits of such assays; conditions: source organism: Escherichia coli O157:H7
HLA-B*48:01 = assay: as above; conditions: source organism: Escherichia coli O157:H7
HLA-B*15:17 [20] = assay: as above; conditions: source organism: Escherichia coli O157:H7
HLA-B*15:01 [21] = assay: IEDB peptide-MHC binding, purified MHC/competitive/fluorescence; filed as Kd, often an IC50 or EC50 that approximates it; ≥ and ≤ were set here for values at or beyond the usual limits of such assays; conditions: source organism: Escherichia coli
HLA-C*03:03 = assay: IEDB peptide-MHC binding, purified MHC/direct/fluorescence; filed as Kd, often an IC50 or EC50 that approximates it; ≥ and ≤ were set here for values at or beyond the usual limits of such assays; conditions: source organism: Escherichia coli O157:H7 str. EDL933
HLA-B*18:01 [22] = assay: as above; conditions: source organism: Escherichia coli O157:H7
HLA-A*24:02 = assay: as above; conditions: source organism: Escherichia coli O157:H7
HLA-A*02:50 = assay: IEDB peptide-MHC binding, purified MHC/competitive/fluorescence; filed as Kd, often an IC50 or EC50 that approximates it; ≥ and ≤ were set here for values at or beyond the usual limits of such assays
HLA-A*02:16 = assay: IEDB peptide-MHC binding, purified MHC/direct/fluorescence; filed as Kd, often an IC50 or EC50 that approximates it; ≥ and ≤ were set here for values at or beyond the usual limits of such assays; conditions: source organism: Mycobacterium tuberculosis
[23] = source organism: Vibrio vulnificus
[24] = source organism: Human immunodeficiency virus 1
[25] = source organism: Escherichia coli O157:H7
[26] = source organism: Escherichia coli
[27] = source organism: Mycobacterium tuberculosis
[28] = source organism: Listeria monocytogenes serotype 4b str. H7858
[29] = source organism: Listeria monocytogenes
[30] = source organism: Giardia lamblia ATCC 50803

## IQTHCEVGY
HLA-B*44:02; [23]
  Kd: ≥ 20 µM
HLA-B*35:01 [1]; [23]
  Kd: 0.94 µM
HLA-A*11:01 [2]; [23]
  Kd: ≥ 20 µM
HLA-B*15:01 [3]; [23]
  Kd: 0.285 µM
HLA-A*02:01; [23]
  Kd: ≥ 20 µM
HLA-A*69:01 [4]; [23]
  Kd: ≥ 20 µM
HLA-B*27:05; [23]
  Kd: ≥ 20 µM
HLA-A*31:01 [5]; [23]
  Kd: ≥ 20 µM
HLA-B*58:01 [6]; [23]
  Kd: ≥ 20 µM
HLA-A*26:01; [23]
  Kd: ≥ 20 µM
HLA-B*07:02; [23]
  Kd: ≥ 20 µM
HLA-B*46:01; [23]
  Kd: ≥ 20 µM
HLA-B*08:01 [7]; [23]
  Kd: ≥ 20 µM
HLA-B*15:02; [23]
  Kd: ≥ 20 µM
HLA-B*40:01; [23]
  Kd: ≥ 20 µM
HLA-A*03:01; [23]
  Kd: ≥ 20 µM
HLA-A*01:01 [8]; [23]
  Kd: ≥ 20 µM

## KSLFNTVATLY
HLA-B*35:01 [9]
  Kd: 2.41 µM
HLA-A*68:02; [24]
  Kd: 3.47 µM
HLA-A*30:01
  Kd: ≥ 20 µM
HLA-A*11:01 [10]
  Kd: 0.233 µM
HLA-A*26:02; [24]
  Kd: ≥ 20 µM
HLA-A*69:01 [11]; [24]
  Kd: 2.84 µM
HLA-A*02:06; [24]
  Kd: 0.155 µM
HLA-A*31:01 [12]
  Kd: ≥ 20 µM
HLA-B*58:01 [13]
  Kd: 0.0028 µM
HLA-A*02:03
  Kd: 0.19 µM
HLA-B*18:01 [14]
  Kd: 0.242 µM
HLA-B*57:01 [15]
  Kd: 0.235 µM
HLA-B*08:01 [16]
  Kd: ≥ 20 µM
HLA-B*39:01
  Kd: ≥ 20 µM
HLA-B*15:17 [17]
  Kd: 0.0038 µM
HLA-A*01:01 [18]
  Kd: 2.11 µM

## EQRLIDICV
HLA-A*11:01 [2]; [25]
  Kd: ≥ 20 µM
HLA-A*02:01; [25]
  Kd: ≥ 20 µM
HLA-B*27:05; [25]
  Kd: ≥ 20 µM
HLA-A*31:01 [5]; [25]
  Kd: ≥ 20 µM
HLA-B*58:01 [6]; [25]
  Kd: ≥ 20 µM
HLA-B*07:02; [25]
  Kd: ≥ 20 µM
HLA-B*57:01 [19]
  Kd: ≥ 20 µM
HLA-B*46:01; [25]
  Kd: ≥ 20 µM
HLA-B*48:01
  Kd: ≥ 20 µM
HLA-B*40:01; [25]
  Kd: ≥ 20 µM
HLA-A*03:01; [25]
  Kd: ≥ 20 µM
HLA-B*15:17 [20]
  Kd: ≥ 20 µM
HLA-A*01:01 [8]; [25]
  Kd: ≥ 20 µM
HLA-A*68:02; [26]
  Kd: ≥ 20 µM
HLA-A*26:02; [26]
  Kd: ≥ 20 µM
HLA-B*15:01 [21]
  Kd: 0.863 µM
HLA-A*69:01 [11]; [26]
  Kd: ≥ 20 µM
HLA-A*02:06; [26]
  Kd: 0.846 µM

## YLFQWNDNV
HLA-B*44:02; [25]
  Kd: ≥ 20 µM
HLA-A*11:01 [2]; [25]
  Kd: ≥ 20 µM
HLA-B*15:01 [3]; [25]
  Kd: 1.71 µM
HLA-A*02:01; [25]
  Kd: 0.0021 µM
HLA-A*69:01 [4]; [25]
  Kd: 0.0036 µM
HLA-B*27:05; [25]
  Kd: ≥ 20 µM
HLA-C*03:03
  Kd: ≥ 20 µM
HLA-B*58:01 [6]; [25]
  Kd: ≥ 20 µM
HLA-B*18:01 [22]
  Kd: ≥ 20 µM
HLA-B*07:02; [25]
  Kd: ≥ 20 µM
HLA-A*24:02
  Kd: ≥ 20 µM
HLA-B*40:01; [25]
  Kd: ≥ 20 µM
HLA-A*03:01; [25]
  Kd: ≥ 20 µM
HLA-A*01:01 [8]; [25]
  Kd: ≥ 20 µM
HLA-A*02:50; source organism: Escherichia coli O157:H7 str. EDL933
  Kd: ≤ 0.0001 µM

## LLLRPFWPA
HLA-A*02:01; [27]
  Kd: 0.113 µM
HLA-A*69:01 [4]; [27]
  Kd: 0.0303 µM
HLA-A*02:16
  Kd: 0.01 µM
HLA-A*02:50; [27]
  Kd: 0.0091 µM

## LMKAPGTYH
HLA-B*35:01 [1]; [28]
  Kd: ≥ 20 µM
HLA-B*15:01 [3]; [29]
  Kd: 0.0668 µM
HLA-B*07:02; [28]
  Kd: ≥ 20 µM
HLA-B*46:01; [29]
  Kd: 4.83 µM
HLA-B*15:02; [29]
  Kd: 0.258 µM

## LLPYPIAGC
HLA-B*44:02; [30]
  Kd: ≥ 20 µM
HLA-A*11:01 [2]; [30]
  Kd: ≥ 20 µM
HLA-B*15:01 [3]; [30]
  Kd: ≥ 20 µM
HLA-A*02:01; [30]
  Kd: 5.1 µM
HLA-A*69:01 [4]; [30]
  Kd: 4.2 µM
HLA-B*27:05; [30]
  Kd: ≥ 20 µM
HLA-A*31:01 [5]; [30]
  Kd: ≥ 20 µM
HLA-B*58:01 [6]; [30]
  Kd: ≥ 20 µM
HLA-A*26:01; [30]
  Kd: ≥ 20 µM
HLA-B*07:02; [30]
  Kd: ≥ 20 µM
HLA-B*08:01 [7]; [30]
  Kd: ≥ 20 µM
HLA-B*40:01; [30]
  Kd: ≥ 20 µM
HLA-A*03:01; [30]
  Kd: ≥ 20 µM
HLA-A*01:01 [8]; [30]
  Kd: ≥ 20 µM
HLA-A*02:50; source organism: Giardia intestinalis ATCC 50581
  Kd: 0.0235 µM
